Reference: paper PMC2120351 (The Journal of Cell Biology, 1995)

Assays:
[1] = molecular target: T1, recombinant whole p62 (rat nucleoporin p62 expressed in E. coli) (rat, UniProt P17955 1-525); experiment: far-Western, overlay or dot blot
T1 sequence: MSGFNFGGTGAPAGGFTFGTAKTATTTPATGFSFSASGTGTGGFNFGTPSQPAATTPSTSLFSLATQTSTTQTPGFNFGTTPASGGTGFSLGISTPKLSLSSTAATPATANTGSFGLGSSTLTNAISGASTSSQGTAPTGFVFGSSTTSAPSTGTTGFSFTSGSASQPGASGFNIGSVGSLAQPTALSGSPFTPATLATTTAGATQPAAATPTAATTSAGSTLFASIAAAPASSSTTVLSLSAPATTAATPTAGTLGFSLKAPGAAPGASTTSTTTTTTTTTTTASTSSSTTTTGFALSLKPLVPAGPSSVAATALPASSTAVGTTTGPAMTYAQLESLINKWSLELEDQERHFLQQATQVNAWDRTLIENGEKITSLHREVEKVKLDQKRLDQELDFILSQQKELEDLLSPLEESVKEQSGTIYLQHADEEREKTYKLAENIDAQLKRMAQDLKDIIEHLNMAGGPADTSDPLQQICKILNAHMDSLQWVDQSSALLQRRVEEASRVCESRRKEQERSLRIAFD

[2] = molecular target: the molecule itself; experiment: far-Western, overlay or dot blot

binding result [1]: binds
B1: recombinant p62 rod domain (domain or fragment)
chain: MTYAQLESLINKWSLELEDQERHFLQQATQVNAWDRTLIENGEKITSLHREVEKVKLDQKRLDQELDFILSQQKELEDLLSPLEESVKEQSGTIYLQHADEEREKTYKLAENIDAQLKRMAQDLKDIIEHLNMAGGPADTSDPLQQICKILNAHMDSLQWVDQSSALLQRRVEEASRVCESRRKEQERSLRIAFD
binding result [2]: binds
